B1: AF0933 (Archaeoglobus fulgidus DSM 4304) (protein)
chain: MLYVYMDGEFVPENEAKVSIFDHGFLYGDGVFEGIRAYNGRVFRLKEHIDRLYDSAKAIDLEIPITKEEFMEIILETLRKNNLRDAYIRPIVTRGIGDLGLDPRKCQNPSIIVITKPWGKLYGDLYEKGLTAITVAVRRNSFDALPPNIKSLNYLNNILAKIEANAKGGDEAIFLDRNGYVSEGSGDNIFVVKNGAITTPPTINNLRGITREAVIEIINRLGIPFKETNIGLYDLYTADEVFVTGTAAEIAPIVVIDGRKIGDGKPGEITRKLMEEFSKLTESEGVPIYE
B2: GEO1900 (Geoglobus acetivorans) (protein)
chain: MSELLVYMNGEFVPESQAKVSVFDHGFLYGDGVFEGIRAYNGKVFKLYEHIDRLYDCARVIDLKIPLSKEEFAEAILETLRRNNLRDAYIRPIVTRGAGDLGLDPRKCPSPNVIIITKPWGKLYGDLYEKGLKAITVAIRRNAIDSLPPNIKSLNYLNNILAKIEANAKGGDEAIFLDHNGYISEGSGDNIFIVKNGTITTPPTLNNLKGITRQVVIELINELEIPFREANIGLFDLYSADEIFVTGTAAEIAPVTYIDGRTVGNGKPGKVTKMLMEKFRERTENEGVEIYR
notes: mainly homodimer in solution, hexamer in crystal; catalytic Lys152

Legend:
[1] = substrate: CC(C)C(=O)C(=O)O; assay: purified protein; settings: 10 mM L-glutamate, 0.1 M Tris-HCl pH 8, 0.1 mM PLP, 70°C
[2] = substrate: CC(C)CC(=O)C(=O)O; assay: purified protein; settings: 10 mM L-glutamate, 0.1 M Tris-HCl pH 8, 0.1 mM PLP, 70°C
[3] = substrate: CC[C@H](C)C(=O)C(=O)O; assay: purified protein; settings: 10 mM L-glutamate, 0.1 M Tris-HCl pH 8, 0.1 mM PLP, 70°C
[4] = substrate: CC(=O)C(=O)O; assay: steady-state kinetics of overall transamination, Michaelis-Menten fit; format: biochemical, Geoglobus acetivorans; settings: 5 mM L-Leu co-substrate; extrapolated
Description: steady-state kinetics of overall transamination, Michaelis-Menten fit on GEO1900 | For GEO1900 the extrapolated Vmax and Km values for pyruvate and AKG were […]

[5] = substrate: O=C(O)CCC(=O)C(=O)O; assay: steady-state kinetics, GluDH-coupled discontinuous assay; format: biochemical, Geoglobus acetivorans; settings: 5 mM L-Leu co-substrate, 50 mM phosphate pH 8.0, 100 mM NaCl, 60 μM PLP, 65°C
Description: steady-state kinetics, GluDH-coupled discontinuous assay on GEO1900 | For GEO1900 the extrapolated Vmax and Km values for pyruvate and AKG were […]

Row | Protein | Km [1] [µM] | Vmax [1] [µmol/min/mg] | kcat/Km [1] [M⁻¹ s⁻¹] | Km [2] [µM] | Vmax [2] [µmol/min/mg] | kcat/Km [2] [M⁻¹ s⁻¹] | Km [3] [µM] | Vmax [3] [µmol/min/mg] | kcat/Km [3] [M⁻¹ s⁻¹] | Km [4] [µM] | Km [5] [µM]
1 | B1 | 420 | 6.3 | 8850 | 250 | 5.5 | 13000 | 130 | 3.9 | 17700 |  | 
2 | B2 |  |  |  |  |  |  |  |  |  | 10600 ± 1900 | 1900 ± 600
